Data: the nanobody polyreactivity screen of Harvey et al. (2022)

Test: yeast display, Sf9 membrane polyspecificity reagent, FACS + sequencing; frameworks hold sequencing errors
How it was run: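 In a synthetic yeast display library (Saccharomyces cerevisiae BJ5465), nanobody expression was induced with galactose for 36–48 hours. FACS gates were set low and high (top ~1%) using anti-HA fluorescence for expression and streptavidin fluorescence for binding of the Sf9 membrane reagent. Each polyreactivity label is drawn from the gate of origin.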

Sequence	polyreactivity (PSR sort gate)
QVQLVESGGGLVQAGGSLRLSSAASGSIFVHYAMGWYRQAPGKEREFVAAISRGGGTTYYADSVKGRFTISRDNAKNTVYLQLNCLKPEDNAVYYCNAVRFFEHDYWGQGTQVTVSS	high polyreactivity
QVQLVESGGGLVQAGGSLRLSSAASGSILWQYAMGWYRQAPGKERELVAAITYSGGSTHYADSVKGRFTISRDNAKNTVYLQMNSLKPEDTAVYYCAAGYWSRYAALRYDHWGQGTQVTVSS	low polyreactivity
QVQLVESGGGLVQAGGSLRLSSAASGSILYYNAMGWYRQAPGKERELVAAITSYGGDTYYADSVKGRFTISRDNAKNTVYLQMNSLKPEDSAVYYCAASSHFRPWAYYDDDYDHWGQGTQVTVSS	low polyreactivity
QVQLVESGGGLVQAGGSLRLSSAASGSIQFRNAMRWYRHAPGKERELVAAITVSGGSTYYADSVKGRFTISRDYAKNRVYLQMNSLKPEDNAVYLCAAVYLLRYSQFDYWGQGTQVTESS	low polyreactivity
QVQLVESGGGLVQAGGSLRLSSAASGSISDSYAMGWYRQAPGKERELVAAITSGDSTYYADSVKGRFTISRDNAKNTVYLQMNSLKPEDTAVYFCAKRVSRVRGYVFTDWSEYDYWGQGTQVTVSS	low polyreactivity
QVQLVESGGGLVQAGGSLRLSSAASGSISPQNVMGWYRQEPGKERELVAAITGGGSTNYADSVKGRFTISRDNAKNTVSLQMNSLKPEDTAVYYCNDDYFQDRLDYWGQGTQVTVSS	low polyreactivity
QVQLVESGGGLVQAGGSLRLSSAASGSRNAMGWSRQAPGKEREFVAAITWNGGSTYYADSVKGRFTISRDNAKNTVYLQMNSLKPEDTAVYYCNKREVFIYGTTYDYWGQGTQVTVSS	low polyreactivity
QVQLVESGGGLVQAGGSLRLSSAASGSTFGAYAMGWYRQAPGKERELVAVINSDGSTNYADSVKGRFTISRDNAKNTVYLQMNSLKPEDTAVYFCAKERTSRGGVPRMNYWGQGTQVTVSS	low polyreactivity
QVQLVESGGGLVQAGGSLRLSSAASGSTFRGNAMGWYRQAPGKERELVAAISAIGGSTYYADSVKGRFTISRDNAKNTVYLQMNSLKPEDTAVYYCAARYLYLLGGFNYWGQGTQVTVSS	high polyreactivity
QVQLVESGGGLVQAGGSLRLSSAASGSTFRWYAMGWSRQEPGKEREFVAAITWSGGRTYYADSVKGRFTISRDNAKNTVFLQLNSLKPEDTAVYYCNAYDYGYSFNYWGQGTQVTLSS	high polyreactivity
QVQLVESGGGLVQAGGSLRLSSAASGSTFRYYVMGRYRQAAGKERELVAGISSRGGTTYYADSVKGRFTISRDNAKNTVYLQMNSLKPEDSAVYYCNADTAAAQASYDRLYVLLDYWGQGTQVTVSS	low polyreactivity
QVQLVESGGGLVQAGGSLRLSSAASGSTFTLYAMGWYRQAPGKERELVATITGSGGSTNYADSVKGRFTISRDNAKNTVYLQMNSLKPEDTAVYYCAADYAVYSFTEFNYWGQGTQVTVSS	high polyreactivity
QVQLVESGGGLVQAGGSLRLSSAASGSTFVQNAMGWYRQAPGKERELVAAISRGGTSTYYADSVKGRFTISRDNAKNTVYLQMNSLKPEDTAVYYCAAYTSYLGYPYDYWGQGTQVTVSS	high polyreactivity
QVQLVESGGGLVQAGGSLRLSSAASGSTFWYYAMGWYRQAPGTERELVAGITQSGGSTYYADSVKGRFTISRDNAKNTVYLQMNSLKPEDTAVYYCAKDGRVSGDFDYWGQGTQVTVSS	low polyreactivity
QVQLVESGGGLVQAGGSLRLSSAASGSTIRVYAMGWYRQAPGKERELVATISWGGGRTYYADSVKGRFTISLDNAKNTVYLQMNSLKQEDTSVYYCAADQRWTTDQPTAGDYWGQGTQVTVSS	low polyreactivity
QVQLVESGGGLVQAGGSLRLSSAASGSTYFTYAMGWYRQAPGKERELVAAISWSGGTTYYADSVKGRFTISRDNAKNTVYLQMNSLKPEDTAVYYCASARDGILKANDYWGQGTQVTVSS	low polyreactivity
QVQLVESGGGLVQAGGSLRLSSAASGYTFSRNAMGWYRQAPGKERELVASISSRGGSTRYADSVKGRFTISRDNAKYTVYLQMNSLKPEDTAVYYCAVRGLYSPFTYGYWGQGTQVTVSS	high polyreactivity
QVQLVESGGGLVQAGGSLRLSSAASTYLRLLMLWDGIDRRLGQIGSWLPLLTLVVNSTYYADSVKGRFTISRDNAKNTVYFQMNSLKPEDTAVYYCNVDPYGTYARTHLEYWGQGTQVTVSS	low polyreactivity
QVQLVESGGGLVQAGGSLRLSSADSGRIFNRYAMGSYRQAPGKERELVAAITGSGGRTYYADSVKGRFTISRDNAKNTVYLQMNSLKPEDTAVYYCAATSLIYGYRTYDYWGQGTQVTVSS	high polyreactivity
QVQLVESGGGLVQAGGSLRLSSADSGRIFSYYAMGGYRQAPGKEREFVATITYGGGSTYYADSVKGRFTISRDNAKNTVYLQMNSLKPEDTAVYYCAARGYSYRGWRMDYWGQGSQVTVSS	high polyreactivity
QVQLVESGGGLVQAGGSLRLSSAGSGSTLAYNAMGWYRQAPGKERELVAAISRGTSTYYADSVKGRFTISRDNAKNTVYLQMNSLKPEDTEVYYCAADYVIQYREYDSWGQGTQVTVSS	low polyreactivity

Sequence	polyreactivity (PSR sort gate)
QVQLVESGGGLVQAGGSLRLSSAPSGRTFLSNAMGWYRQAPGKERELVAAITWETDSTYYADSVKGLFTISRDNAKNTVYLQMNSLKPEDTAVYYCAARRYRPFTDYDGRTWWTRDYWGQGTQVTVSS	low polyreactivity
QVQLVESGGGLVQAGGSLRLSSAPSGSIFWGYAMGWYRQAPGKERELVATIRNRGGSTYYADSVKGRFTISRDNAKNTVYFQMNSRKPDDTAVYYCAAVSYRQYYGWGNYWGQGSQVTVSS	low polyreactivity
QVQLVESGGGLVQAGGSLRLSSASSGFTFNSYAMGWYRQAPGKERELVAAIDTGDDITYYADSVKGRFTISRDNAKNTVYLQMNSLKPVDTAVYYCAAKSRRQYTVGLSSDYWGQGTQVTVSS	high polyreactivity
QVQLVESGGGLVQAGGSLRLSSASSGRTLVPYAMGWYRQAPGKERELVAAISSGGYTNYADSVKGRFTISRDNAKNTVYLQMNSLKPEDTAVYYCAADYPVRSYDYWGQGTQVTVSS	low polyreactivity
QVQLVESGGGLVQAGGSLRLSSASSRSTFLLNAMGWYRQEPGKERELVAAITWTGGSTYYADSVKGLFTISRDNANNNVYLQMNSLNQEDTAVYYCAAETYVTSYYYWGQGTQVTVSS	low polyreactivity
QVQLVESGGGLVQAGGSLRLSSDASGNTFVYNAMGWYRQAPGKERKLVAGITKTGGRTYYADSVKGRFTISRDNAKNTVYLQMNSLKPDDTAVYYCAARPWNDGYYVGRFHMDYWGQGTQVTLSS	low polyreactivity
QVQLVESGGGLVQAGGSLRLSSDDSGFTFVSNAMGWYRQAPGKEMELVAVISSGGSTTYADSVKGRFTISRDNAKNTVYLQMNSLKPEDTAVYYCATTNYQDSYEGGDYWGQGTQVTVSS	low polyreactivity
QVQLVESGGGLVQAGGSLRLSSSACGSTFYKNAMGWDRQAPGKERELVAGISRRGGRTYYADSLKGRFTISRDNANNTVYLQMNSLKPVDTADYYCNTGHEEDEYDYWGQGTQVTVSS	low polyreactivity
QVQLVESGGGLVQAGGSLRLSSTASGSTIVAYAMGWYRQAPGKERELVAAITSSGGRTYYADSVKGRFTISRDNAKNSVYLQMNSLKPEDTAVYYCAAVTHGRYDWGQGTQVTVSS	high polyreactivity
QVQLVESGGGLVQAGGSLRLSWAASGFIFAYYAMGWYTPAPGKERELVAAISKRGGSTYYADSVKGRFTISRDNAKNTVYLQMNSLKPEDTAVYYCAADGHGGYGYWGQGTQVTVSS	high polyreactivity
QVQLVESGGGLVQAGGSLRLSWAASGFIFVSNAMGWYRQAPGKERELVAAITSGDNTKYADSVKGRFTISRDNAKNTVYLQMNSLKPEDTAVYYCAVTNRYQGAGYYWGQGTQVTVSS	low polyreactivity
QVQLVESGGGLVQAGGSLRLSWAASGFTFRRNAMGWYRQAPGKEREFVAAITRSGGSTYYADSVKGRFTISRDNAKNTVYVHMNSLKPEDTAVYYCAKERPTDRYPSDEYWGQGTQVTVSS	high polyreactivity
QVQLVESGGGLVQAGGSLRLSWAASGITFATKAMGWYRQAPGKERELVAGITSGGSTYYADSVKGRFTISRDNAKNTVYLQMNSLQPEDTAVYYCANRYHYWYGTGYDYWGQGTQVTVSS	low polyreactivity
QVQLVESGGGLVQAGGSLRLSWAASGITFSRNAMGWYRQAPGKESELVATITSGGSTNYADSVKGRFTISRDHAKNTVYLQMNSLKPEDTAVYYCNAVWNNFISGRSYDYWGQGTQVTVSS	low polyreactivity
QVQLVESGGGLVQAGGSLRLSWAASGLIFVYNDMGWYRQAPGKEMELVAAIRWSSGRTYYADSVKGRFTISRDNAKNTVYLQMNSLKPEDTAVYYCAAKGVGPERGGYDYWGQGTQVTVSS	high polyreactivity
QVQLVESGGGLVQAGGSLRLSWAASGRILSANAMGWYRQAPGKERELVAAITYSGDNTYYADSVKGRFTISRDNAKNTVDVQMNSLKPEDTAVYYCAAVRYYAYLSSWRYDYWGQGTQVTVSS	low polyreactivity
QVQLVESGGGLVQAGGSLRLSWAASGRTLWYYTMGWYRQAPGKERELLAGITVSGGSTYYADSVKGRFTISRDNAKNTVYLQMNSLKPEDTAVYYCADGYYSTWKQASRYRYYYWGQGTQVTVSS	high polyreactivity
QVQLVESGGGLVQAGGSLRLSWAASGSIFGNAMGWYRQAPGKEREFVAAISSSGSSTYYADSVKGRFTISRDNAKNTVYLQMNSLKPEDTAVYYCAKRRRSAAPKYDYWGQGTHVTVSS	high polyreactivity
QVQLVESGGGLVQAGGSLRLSWAASGSIFKYYAMGWYRQAPGKDRELVADISRSGGRTYYADSVKGRFTISRDNAKNTVFLQMNSLKPEDTAVYYCAKRYSRGSQDDYWGQGTQVTVSS	high polyreactivity
QVQLVESGGGLVQAGGSLRLSWAASGSIFRSYAMGWYRQAPGKEREFVAAIPNSSGRTYYADSVKGRFTISRDNAKNTVYLQMNSLKPEDTAVYYCAARLPRTYQGGKLYRLQYSWGQGTQVTVSS	high polyreactivity
